Earlier results on two substances are cited in paper PMC3826259.

Series [1] has as its target HIV-1 protease mature PR (Human immunodeficiency virus 1) (UniProt O93215).
The target in series [2] is p6*-PR precursor p6*-PR (Human immunodeficiency virus 1) (UniProt O93215).

The Kd is the equilibrium constant for the complex coming apart. On to “HIV-1 protease mature PR (from UniProt O93215)”, for which the Kd in series [1] was < 5 nM.
As to “p6*-PR precursor p6*-PR (from UniProt O93215)”, the Kd in series [2] is 700 nM.
